Experimental data: patent US20220169728A1 (AB THERAPEUTICS, published 2022)
Substitutions are numbered along the chain they refer to. Names and notes keep the numbering of the source.

T1: CD55 (UniProt P08174 35-353, limits assumed)
T1 construct: whole, on cells; also called CD55 on Rituximab resistant Raji cells (RRCL)
T1 sequence (looked up): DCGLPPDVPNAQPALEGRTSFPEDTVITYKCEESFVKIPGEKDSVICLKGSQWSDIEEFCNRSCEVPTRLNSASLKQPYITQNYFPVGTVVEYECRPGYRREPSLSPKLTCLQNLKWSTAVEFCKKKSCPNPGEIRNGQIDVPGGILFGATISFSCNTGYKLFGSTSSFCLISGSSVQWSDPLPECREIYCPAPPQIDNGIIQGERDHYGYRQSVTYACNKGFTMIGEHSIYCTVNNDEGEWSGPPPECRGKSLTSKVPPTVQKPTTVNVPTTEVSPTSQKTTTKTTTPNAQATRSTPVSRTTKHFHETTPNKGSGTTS

T2: CD20 (UniProt P11836 1-297, limits assumed)
T2 construct: whole, on cells; also called CD20 on Raji cells
T2 sequence (looked up): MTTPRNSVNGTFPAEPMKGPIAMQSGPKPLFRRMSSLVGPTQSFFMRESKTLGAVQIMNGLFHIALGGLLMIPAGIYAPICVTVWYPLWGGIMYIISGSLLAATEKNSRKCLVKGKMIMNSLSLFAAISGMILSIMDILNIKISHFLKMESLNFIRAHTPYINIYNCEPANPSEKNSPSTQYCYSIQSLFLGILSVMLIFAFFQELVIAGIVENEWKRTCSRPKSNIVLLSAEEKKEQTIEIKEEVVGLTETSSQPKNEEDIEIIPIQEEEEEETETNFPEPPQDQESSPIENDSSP

B1: anti-CD55 antibody with CD55VH (SEQ ID NO: 14) N52C and VL (SEQ ID NO: 15) (antibody, V domains shown)
VH: QVKLQESGGGLVQPGGSLKLSCAASGFTFSGYGMSWIRQTPDKRLEWVATICSGGSYTYYSDSVKGRFTISRDNVKNTLYLQMSSLKSEDTAMYYCARRNGTLYYYLMDYWGRGTLVTVSS
VL: QSVLTQPPSASGSPGQSVTISCTGTSSDVGGYNYVSWYQQHPGKAPKFMIYDVSKRPSGVSNRFSGSKSGNTASLTISGVQAEDEADYYCSSYTSASTVIFGGGTKLTVL
notes: also called Test 3
B2: anti-CD55 antibody with CD55VH (SEQ ID NO: 14) N100K and VL (SEQ ID NO: 15) (antibody, V domains shown)
VH: B1 VH with C52N, N100K
VL: B1 VL
notes: also called Test 13
B3: anti-CD55 antibody with CD55VH (SEQ ID NO: 14) N100I and VL (SEQ ID NO: 15) (antibody, V domains shown)
VH: B1 VH with C52N, N100I
VL: B1 VL
notes: also called Test 23
B4: anti-CD55 antibody with CD55VH (SEQ ID NO: 14) N52L and VL (SEQ ID NO: 15) (antibody, V domains shown)
VH: B1 VH with C52L
VL: B1 VL
notes: also called Test 10
B5: anti-CD55 antibody with CD55VH (SEQ ID NO: 14) N52G and VL (SEQ ID NO: 15) (antibody, V domains shown)
VH: B1 VH with C52G
VL: B1 VL
notes: also called Test 4
B6: anti-CD55 antibody with CD55VH (SEQ ID NO: 14) N52E and VL (SEQ ID NO: 15) (antibody, V domains shown)
VH: B1 VH with C52E
VL: B1 VL
notes: also called Test 6
B7: anti-CD55 antibody with CD55VH (SEQ ID NO: 14) N100F and VL (SEQ ID NO: 15) (antibody, V domains shown)
VH: B1 VH with C52N, N100F
VL: B1 VL
notes: also called Test 18
B8: anti-CD55 antibody with CD55VH (SEQ ID NO: 14) N52M and VL (SEQ ID NO: 15) (antibody, V domains shown)
VH: B1 VH with C52M
VL: B1 VL
notes: also called Test 8
B9: anti-CD55 antibody with CD55VH (SEQ ID NO: 14) N52V and VL (SEQ ID NO: 15) (antibody, V domains shown)
VH: B1 VH with C52V
VL: B1 VL
notes: also called Test 5
B10: anti-CD55 antibody with CD55VH (SEQ ID NO: 14) N100Y and VL (SEQ ID NO: 15) (antibody, V domains shown)
VH: B1 VH with C52N, N100Y
VL: B1 VL
notes: also called Test 16
B11: anti-CD55 antibody with CD55VH (SEQ ID NO: 14) N100Q (printed "N1000") and VL (SEQ ID NO: 15) (antibody, V domains shown)
VH: B1 VH with C52N, N100Q
VL: B1 VL
notes: The cell prints "N1000"; also called Test 22
B12: anti-CD55 antibody with CD55VH (SEQ ID NO: 14) N52S and VL (SEQ ID NO: 15) (antibody, V domains shown)
VH: B1 VH with C52S
VL: B1 VL
notes: also called Test 2
B13: anti-CD55 antibody with CD55VH (SEQ ID NO: 14) T102G and VL (SEQ ID NO: 15) (antibody, V domains shown)
VH: B1 VH with C52N, T102G
VL: B1 VL
notes: also called Test 27
B14: anti-CD55 antibody with CD55VH (SEQ ID NO: 14) N52P and VL (SEQ ID NO: 15) (antibody, V domains shown)
VH: B1 VH with C52P
VL: B1 VL
notes: also called Test 11
B15: anti-CD55 antibody with CD55VH (SEQ ID NO: 14) N52Y and VL (SEQ ID NO: 15) (antibody, V domains shown)
VH: B1 VH with C52Y
VL: B1 VL
notes: also called Test 9
B16: anti-CD55 antibody with CD55VH (SEQ ID NO: 14) N100L and VL (SEQ ID NO: 15) (antibody, V domains shown)
VH: B1 VH with C52N, N100L
VL: B1 VL
notes: also called Test 17
B17: anti-CD55 antibody with CD55VH (SEQ ID NO: 14) N100M and VL (SEQ ID NO: 15) (antibody, V domains shown)
VH: B1 VH with C52N, N100M
VL: B1 VL
notes: also called Test 19
B18: anti-CD55 antibody with CD55VH (SEQ ID NO: 14) N100A and VL (SEQ ID NO: 15) (antibody, V domains shown)
VH: B1 VH with C52N, N100A
VL: B1 VL
notes: also called Test 20
B19: anti-CD55 antibody with CD55VH (SEQ ID NO: 14) N100E and VL (SEQ ID NO: 15) (antibody, V domains shown)
VH: B1 VH with C52N, N100E
VL: B1 VL
notes: also called Test 24
B20: anti-CD55 antibody with CD55VH (SEQ ID NO: 14) N100V and VL (SEQ ID NO: 15) (antibody, V domains shown)
VH: B1 VH with C52N, N100V
VL: B1 VL
notes: also called Test 15
B21: anti-CD55 antibody with CD55VH (SEQ ID NO: 14) N100T and VL (SEQ ID NO: 15) (antibody, V domains shown)
VH: B1 VH with C52N, N100T
VL: B1 VL
notes: also called Test 14
B22: anti-CD55 antibody with CD55VH (SEQ ID NO: 14) N52W and VL (SEQ ID NO: 15) (antibody, V domains shown)
VH: B1 VH with C52W
VL: B1 VL
notes: also called Test 7
B23: anti-CD55 antibody with CD55VH (SEQ ID NO: 14) N100H and VL (SEQ ID NO: 15) (antibody, V domains shown)
VH: B1 VH with C52N, N100H
VL: B1 VL
notes: also called Test 21
B24: anti-CD55 antibody with CD55VH (SEQ ID NO: 14) T102M and VL (SEQ ID NO: 15) (antibody, V domains shown)
VH: B1 VH with C52N, T102M
VL: B1 VL
notes: also called Test 26
B25: CD20/CD3 BsMab with common VL (SEQ ID NO: 3) Q88Y (bispecific antibody, V domains shown)
VH 1: QVQLQQPGAELVKPGASVKMSCKASGYTFTSYNMHWVKQTPGRGLEWIGAIYPGNGDTSYNQKFKGKATLTADKSSSTAYMQLSSLRSEDSAVYYCARSTYYGGDWYFNVWGAGTTVTVSA
VH 2: EVQLQESGAELARPGASVKMSCKASGYTFTSYTMHWVKQRPGEGLEWIGYINPSSGYTKYNQKFKDKATLTADKSSSTAYMELSSLTSEDSAVYYCARWQDYDVYFDYWGEGTTLTVSS
VL: QIVLSQSPAILSASPGEKVTMTCRASSSVSYIHWFQQKPGSSPKPWIYATSNLASGVPVRFSGSGSGTSYSLTISRVEAEDAATYYCYQWTSNPPTFGGGTKLEIKR
B26: parental anti-CD3 IgG (Parental CD3) (antibody, V domains shown)
VH: B25 VH 2 with E1Q, E6Q, E43Q, E82Q, E111Q
VL: B25 VL with I32M, F35Y, V59A, Y88Q, T91S, I105T
notes: IgG; also called MAb 12F6; CD3 parental Ab
B27: CD20/CD3 BsMab with common VL (SEQ ID NO: 3) Q88P (bispecific antibody, V domains shown)
VH 1: B25 VH 1
VH 2: B25 VH 2
VL: B25 VL with Y88P
B28: CD20/CD3 BsMab with common VL (SEQ ID NO: 3) N93C (bispecific antibody, V domains shown)
VH 1: B25 VH 1
VH 2: B25 VH 2
VL: B25 VL with Y88Q, N93C
B29: CD20/CD3 BsMab with common VL (SEQ ID NO: 3) Q88L (bispecific antibody, V domains shown)
VH 1: B25 VH 1
VH 2: B25 VH 2
VL: B25 VL with Y88L
B30: CD20/CD3 BsMab with common VL (SEQ ID NO: 3) Q88G (bispecific antibody, V domains shown)
VH 1: B25 VH 1
VH 2: B25 VH 2
VL: B25 VL with Y88G
B31: CD20/CD3 BsMab with common VL (SEQ ID NO: 3) Q88H (bispecific antibody, V domains shown)
VH 1: B25 VH 1
VH 2: B25 VH 2
VL: B25 VL with Y88H
B32: CD20/CD3 BsMab with common VL (SEQ ID NO: 3) Q88M (bispecific antibody, V domains shown)
VH 1: B25 VH 1
VH 2: B25 VH 2
VL: B25 VL with Y88M

Key:
CD55 = target: T1, CD55; assay: binding at 5 µg/ml against the unmutated antibody (SEQ ID NO: 14 + 15); format not stated
CD3 = CD3 (Homo sapiens (Human), UniProt P07766 23-207; P04234 22-171; P09693 23-182); assay: cell-based or functional assay
CD3, sequence (P07766 23-207 limits assumed, chain 1 of 3): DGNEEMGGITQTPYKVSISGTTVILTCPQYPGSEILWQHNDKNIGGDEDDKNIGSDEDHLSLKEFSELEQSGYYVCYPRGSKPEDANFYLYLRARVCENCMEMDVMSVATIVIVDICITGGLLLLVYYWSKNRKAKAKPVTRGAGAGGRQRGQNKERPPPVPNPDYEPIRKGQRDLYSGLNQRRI
CD3, sequence (P04234 22-171 limits assumed, chain 2 of 3): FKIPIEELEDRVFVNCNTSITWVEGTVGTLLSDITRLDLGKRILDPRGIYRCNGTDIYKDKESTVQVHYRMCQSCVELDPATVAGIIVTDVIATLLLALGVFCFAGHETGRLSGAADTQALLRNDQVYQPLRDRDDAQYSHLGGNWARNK
CD3, sequence (P09693 23-182 limits assumed, chain 3 of 3): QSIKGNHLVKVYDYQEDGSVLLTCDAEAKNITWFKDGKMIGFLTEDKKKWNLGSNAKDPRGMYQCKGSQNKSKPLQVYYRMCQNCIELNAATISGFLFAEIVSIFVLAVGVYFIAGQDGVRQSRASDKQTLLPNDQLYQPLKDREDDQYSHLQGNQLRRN

CD20 = target: T2, CD20; assay: flow cytometry binding to CD20+ Raji cells, antibody titration, Cy3 goat anti-human IgG detection

Row | Binder | Function remaining percentage (5 µg/ml) (CD55) | other results
1 | B1 | 32% | 
2 | B2 | 106% | 
3 | B3 | 62% | 
4 | B4 | 15% | 
5 | B5 | 28% | 
6 | B6 | 21% | 
7 | B7 | 86% | 
8 | B8 | 16% | 
9 | B9 | 21% | 
10 | B10 | 95% | 
11 | B11 | 62% | 
12 | B12 | 95% | 
13 | B13 | 17% | 
14 | B14 | 11% | 
15 | B15 | 17% | 
16 | B16 | 92% | 

Row | Binder | Function remaining percentage (5 µg/ml) (CD55) | other results
17 | B17 | 86% | 
18 | B18 | 83% | 
19 | B19 | 17% | 
20 | B20 | 94% | 
21 | B21 | 96% | 
22 | B22 | 17% | 
23 | B23 | 72% | 
24 | B24 | 98% | 
25 | B25 |  | Function % 0.025 ug/ml (T cell activation, CD69 on Jurkat cells with Raji cells, against the unmutated baseline) (CD3): 8%; Function % 2 ug/ml (T cell activation, CD69 on Jurkat cells with Raji cells, against the unmutated baseline) (CD3): 21%
26 | B26 |  | binding result (CD20): no binding (tested: 10 µg/ml)
27 | B27 |  | Function % 0.025 ug/ml (T cell activation, CD69 on Jurkat cells with Raji cells, against the unmutated baseline) (CD3): 7%; Function % 2 ug/ml (T cell activation, CD69 on Jurkat cells with Raji cells, against the unmutated baseline) (CD3): 16%
28 | B28 |  | Function % 0.025 ug/ml (T cell activation, CD69 on Jurkat cells with Raji cells, against the unmutated baseline) (CD3): 16%; Function % 2 ug/ml (T cell activation, CD69 on Jurkat cells with Raji cells, against the unmutated baseline) (CD3): 77%
29 | B29 |  | Function % 0.025 ug/ml (T cell activation, CD69 on Jurkat cells with Raji cells, against the unmutated baseline) (CD3): 8%; Function % 2 ug/ml (T cell activation, CD69 on Jurkat cells with Raji cells, against the unmutated baseline) (CD3): 55%
30 | B30 |  | Function % 0.025 ug/ml (T cell activation, CD69 on Jurkat cells with Raji cells, against the unmutated baseline) (CD3): 8%; Function % 2 ug/ml (T cell activation, CD69 on Jurkat cells with Raji cells, against the unmutated baseline) (CD3): 39%
31 | B31 |  | Function % 0.025 ug/ml (T cell activation, CD69 on Jurkat cells with Raji cells, against the unmutated baseline) (CD3): 12%; Function % 2 ug/ml (T cell activation, CD69 on Jurkat cells with Raji cells, against the unmutated baseline) (CD3): 36%
32 | B32 |  | Function % 0.025 ug/ml (T cell activation, CD69 on Jurkat cells with Raji cells, against the unmutated baseline) (CD3): 27%; Function % 2 ug/ml (T cell activation, CD69 on Jurkat cells with Raji cells, against the unmutated baseline) (CD3): 95%
